In patent US20130295112A1 (AbbVie / Abbott, published 2013):

Legend:
[1] = target: T1, recombinant rat beta nerve growth factor (rat, UniProt P25427 122-241); experiment: cell-based or functional assay
[2] = target: recombinant human beta nerve growth factor (human) (UniProt P01138); experiment: cell-based or functional assay
[3] = target: T2, human brain-derived neurotrophic factor (BDNF) (human, UniProt P23560 129-247); experiment: ELISA, plates coated with human BDNF, PG110 titrated, fluorescence read-out
T2 construct: Bought protein coated on ELISA plates; also called human BDNF
T2 sequence (looked up): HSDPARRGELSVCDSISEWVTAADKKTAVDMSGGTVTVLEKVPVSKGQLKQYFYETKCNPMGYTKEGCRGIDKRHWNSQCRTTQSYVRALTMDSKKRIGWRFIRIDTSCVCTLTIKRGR
Procedure: (§1) The selectivity profile of PG110 binding to human neurotrophins was determined using an Enzyme-Linked ImmunoSorbent Assay (ELISA) binding assay. ELISA plates were coated with 100 ng/well of either human NGF (R&D Systems, Cat. No. 256-GF), brain-derived neurotrophic factor (BDNF) (R&D Systems, Cat. No. 248-BD), neurotrophin 3 (NT3) (R&D Systems, Cat. No. 267-N3) or neurotrophin 4 (NT4) (R&D Systems, Cat. No. 268-N4). PG110 was added to neurotrophin-coated wells in the concentration range 3 pM-3 nM. After washing (PBS in 0.5% (v/v) Tween 20, pH 7.3), PG110 binding was detected using a biotinylated anti-human IgG antibody (Rockland Immunochemical Inc., Cat. No. 609-1602) coupled with streptavidin-linked alkaline phosphatase (Sigma Aldrich, Cat. No. S2890), followed by development of a color reaction by addition of 4-methylumbelliferyl phosphate (Sigma Aldrich, Cat. No. M3168). The reaction product was quantified using a fluorimeter (excitation at 360 nm; emission at 440 nm).

[4] = target: T1, recombinant rat beta nerve growth factor; experiment: cell-based or functional assay; remark: listed apart in the source
[5] = target: T1, recombinant rat beta nerve growth factor; experiment: cell-based or functional assay; remark: listed apart in the source
recombinant mouse NGF = recombinant mouse NGF (mouse, UniProt P01139 122-241, limits assumed); experiment: cell-based or functional assay
[6] = target: T3, human neurotrophin 3 (NT3) (human, UniProt P20783 139-257); experiment: ELISA, plates coated with human NT3, PG110 titrated, fluorescence read-out
T3 construct: Bought protein coated on ELISA plates
T3 sequence (looked up): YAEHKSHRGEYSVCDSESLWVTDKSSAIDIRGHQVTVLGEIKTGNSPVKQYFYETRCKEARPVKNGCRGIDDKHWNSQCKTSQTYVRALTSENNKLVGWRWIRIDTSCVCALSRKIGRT
Procedure: as §1

[7] = target: T4, human neurotrophin 4 (NT4) (human, UniProt P34130 81-210); experiment: ELISA, plates coated with human NT4, PG110 titrated, fluorescence read-out
T4 construct: Bought protein coated on ELISA plates
T4 sequence (looked up): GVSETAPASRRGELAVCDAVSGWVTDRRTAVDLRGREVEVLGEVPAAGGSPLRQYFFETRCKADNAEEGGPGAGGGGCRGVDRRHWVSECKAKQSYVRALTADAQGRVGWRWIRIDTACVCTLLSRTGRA
Procedure: as §1

[8] = target: T1, recombinant rat beta nerve growth factor; experiment: SPR (BIAcore), rrNGF immobilised on CM5 (60 RU), PG110 as analyte, 37 C, 1:1 Langmuir, mean of 3
Excerpt: BIAcore analysis was used to evaluate the binding kinetics of the interaction between PG110 and either recombinant rat NGF (rrNGF) or recombinant human NGF (rhNGF).
Recombinant human beta nerve growth factor (rhNGF) (R&D Systems, Cat. No. 256 GF/CF) or recombinant rat beta nerve growth factor (rrNGF) (R&D Systems, Cat. No. 556 GF/CF) was immobilized covalently on CM5 sensor chips (GE Healthcare, formerly Biacore AB, Uppsala, Sweden) via primary amine groups using the amine coupling kit (GE Healthcare), with HBSEP (10 mM 4-(2-hydroxyethyl)-1-piperazineethanesulfonic acid (HEPES), 150 mM NaCl, 3 mM ethylene-diamine-tetraacetic acid (EDTA) and 0.005% Tween® 20, pH 7.4) as running buffer. The sensor chip surface was activated by injection of a mixture of 400 mM N-(3-Dimethylaminopropyl)-N′-ethylcarbodiimide (EDC) and 100 mM N-Hydroxysuccinimide (NHS) (1:1, v/v) for 7 minutes at a flow rate of 10 μl/min. β-NGF (rh or rr) was diluted to 200 ng/ml in 10 mM sodium acetate pH 4.0 and the diluted solution was injected over the activated surface for various times to yield different surface densities. For quantitative interaction analyses, a surface density of 60 RU was prepared by injection of 50 μl diluted β-NGF (contact time 5 minutes). Non-reacted NHS esters were deactivated with 70 μl (contact time 7 minutes) ethanolamine solution (1 M, pH 8.5).

T1 sequence (P25427 122-241 limits assumed): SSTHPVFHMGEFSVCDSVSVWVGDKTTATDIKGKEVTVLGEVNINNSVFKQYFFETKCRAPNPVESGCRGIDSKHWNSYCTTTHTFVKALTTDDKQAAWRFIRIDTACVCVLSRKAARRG
Sequence of recombinant human beta nerve growth factor (human) (P01138 122-241 limits assumed): as the sequence (P25427 122-241 limits assumed) above, with T3S, V6I, M9R, T37M, A60D, E65D, T92M, D94G, A117V, G120A counted along it
Sequence of recombinant mouse NGF (P01139 122-241 limits assumed): as the sequence (P25427 122-241 limits assumed) above, with G40A, K50R, P61S, D94E, A117T counted along it

rat αD11 antibody (precursor of PG110)
IC50, TF1 cell proliferation mediated by rat NGF (MTT), geomean, n=3; Batch 1 [1]: 44.8 ng/mL
IC50, TF1 cell proliferation mediated by rat NGF (MTT), n=1; Batch 2 [1]: 54.9 ng/mL
IC50, TF1 cell proliferation mediated by human NGF (MTT), geomean, n=3; Batch 1 [2]: 63.7 ng/mL
IC50, TF1 cell proliferation mediated by human NGF (MTT), n=1; Batch 2 [2]: 107 ng/mL

B1: PG110 (humanized anti-NGF antibody, Hu-alphaD11 variable regions with Ser-to-Pro hinge-mutated human IgG4 constant region and human kappa light chain) (antibody, V domains shown)
VH: EVQLVESGGGLVQPGGSLRLSCAASGFSLTNNNVNWVRQAPGKGLEWVGGVWAGGATDYNSALKSRFTISRDNSKNTAYLQMNSLRAEDTAVYYCARDGGYSSSTLYAMDAWGQGTLVTVSS
VL: DIQMTQSPSSLSASVGDRVTITCRASEDIYNALAWYQQKPGKAPKLLIYNTDTLHTGVPSRFSGSGSGTDYTLTISSLQPEDFATYFCQHYFHYPRTFGQGTKVEIKR
notes: expressed in CHO cells; also called PG110 antibody; PG110 mAb
binding result [3]: no binding
IC50, TF1 cell proliferation mediated by rat NGF (MTT), geomean, n=2 [4]: 26.2 ng/mL
IC50, TF-1 cell proliferation stimulated by 10 ng/ml rat recombinant NGF (MTT), geomean, n=5 [5]: 27.8 ng/mL
IC50, TF-1 cell proliferation stimulated by 10 ng/ml mouse recombinant NGF (MTT), geomean, n=3 (recombinant mouse NGF): 30.8 ng/mL
binding result [6]: no binding
binding result [7]: no binding
Kd [8]: 0.092 nM
koff [8]: 1.5e-05 s⁻¹
kon [8]: 170000 M⁻¹ s⁻¹
